Test results from US11492376B2, “Toxoplasma gondii GRA8-derived recombinant peptides and composition for preventing or treating cancer comprising the same” (Industry—University Cooperation Foundation Hanyang …, priority 2019, dated 2022).

Tests used:
[1] = test system: mitochondrial targeting of GRA8; assay: Subcellular fractionation: mitochondrial localization of GRA8; type: cell-based; settings: 10 μM peptide, within 6 hours of incubation; 293T cells or BMDM
Procedure: (§1) FIGS. 2A, 2B, 2C, 2D and 2E show the design and expression of an ATRAM-conjugated multifunctional GRA8 peptide (rATRAM-G8-M/AS)-based protein [(A) Subcellular fractionation of 293T cells was performed by expression of GST-GRA8 WT or incubation of WT rGRA8 with (1 μg/ml) BMDM and treatment with several Tat-GRA8 peptides for 6 hours (10 μM). Mitochondrial and cytosolic fractions were fractionated and analyzed for expression of GST by IB. The purity of the fractions was confirmed by blotting for VDAC (mitochondrial protein) and actin (cytosolic protein). (B) A mammalian GST-GRA8 construct was transfected into 293T cells for 12 hours with V5-ATP5A1 or Flag-SIRT3, and treated with several Tat-GRA8 peptides (10 μM) for 6 hours. The 293T cells were used for GST pulldown, followed by IB with αV5 or αFlag. WCL was used for IB with αGST, αV5, αFlag or αActin. (C) The schematic design of ATRAM-GRA8-M/AS and its mutants [ATRAM-G8-M/AS (SEQ ID NO: 1), ATRAM-G8-M (SEQ ID NO: 2), ATRAM (SEQ ID NO: 3)]. (D) 6×His-rATRAM-GRA8-M/AS purified with bacteria and its mutants were analyzed by Coomassie blue staining (left) or αHis immunoblotting (IB; right). (E) BMDM was incubated with rATRAM-GRA8-M/AS and its mutant (20 μg/ml) for indicated times, and cell viability was then measured by an MMT assay. Data represents four independent experiments with similar results (A, B, D and E)]. […]

[2] = test system: GRA8-ATP5A1/SIRT3 interaction; assay: GST pulldown of GRA8-ATP5A1/SIRT3 interaction in 293T cells; type: cell-based; settings: 10 μM peptide, within 6 hours of incubation
Procedure: as §1

[3] = test system: HCT116 cells; assay: MTT assay of cell viability, HCT116 cells; type: cell-based, human
Procedure: (§2) FIGS. 1A, 1B and 1C: confirms that rGRA8 treatment increases HCT116 cell death by mitochondria pathways [(A and B). Various cancer cells were incubated with WT rGRA8 (20 μg/ml) and its mutants for indicated times and then cell viability was measured by MTT analysis (upper) and αATP5A1, αSIRT3 or αActin immunoblotting (lower) was performed. […] The cells were incubated with WT rGRA8 for indicated times and subjected to IP with αLys-AC or αHis and IB with αATP5A1, αATP5C1, αSIRT3, αPGC-1, αPKCα or αActin. Data represents five independent experiments with similar results. Significant differences were determined by comparison with rVector treatment (** P<0.01; *** P<0.001)].
FIGS. 4A, 4B, 4C, 4D and 4E show HCT116 cell death by rATRAM-GRA8-M/AS-induced mitochondrial activation [(A and B) HCT116 cells were incubated with WT rGRA8 or rATRAM-GRA8-M/AS and its mutants for indicated times, and then cell viability was measured with an MTT assay. […] The cells were stimulated with rATRAM-GRA8-M/AS for 1 day and subjected to enzymatic activity of OXPHOS V, and (C) MitoTracker fluorescence signals were assessed by flow cytometry. (D) A bar graph indicates a mitochondrial mass (MFI), and (E) the mtDNA content of BMDM was measured by quantitative real-time PCR. The mtDNA content was normalized by nuclear DNA. Significant differences were determined by comparison with control treatment (** P<0.01; *** P<0.001). Data represents five independent experiments with similar results].
(§3) As described in Non-Patent Document 1, the cell viability for a non-treated group was measured by an MTT assay. After incubation for an indicated time, 5 mg/ml of a 3-(4,5-dimethyl thiazol-2-yl)-2,5-diphenyltetrazoliumbromide (MTT) solution was added to a medium, and the cells were further incubated for 4 hours. Subsequently, all of the medium was removed, the same volume of a dimethyl sulfoxide (DMSO) solution was added for 15 minutes to dissolve formazan. Using a UV/VIS spectrophotometer, each well of a plate was measured at 540 nm to measure relative cell viability.

[4] = test system: HT-29; assay: MTT assay of cell viability, HT-29 cells; type: cell-based, human; settings: 20 μg/ml, over time
Procedure: as §2, §3

[5] = test system: ATP5A1, SIRT3 and ATP5C1; assay: Immunoprecipitation/immunoblotting in HCT116 cells; type: cell-based, human; settings: IP/IB
Procedure: as §2
For immunoprecipitation, cells were obtained, and then lysed in an NP-40 buffer supplemented with a complete protease inhibitor cocktail (Roche). After pre-purification with A/G agarose beads at 4° C. for 1 hour, a whole cell lysate was used for immunoprecipitation with indicated antibodies. […]
For immunoblotting, polypeptides were subjected to electrophoresis (PAGE) with an SDS-polyacrylamide gel, and then transferred to a PVDF membrane (Bio-Rad) for separation. […] Antibody binding was visualized by chemiluminescence (ECL; Millipore) and detected by a Vilber chemiluminescence analyzer (Fusion SL 3; Vilber Lourmat).

[6] = test system: HCT116 xenografts; assay: HCT116 xenograft mouse model, antitumor activity; type: in vivo, nude mouse; settings: HCT116 xenograft mice

Molecule: GRKKRRQRRR (Tat) [reference compound]
- blocking of mitochondrial targeting of GRA8 [1]: impossible

Molecule: GRKKRRQRRR-G-ATATTTTTTR (GRKKRRQRRRGATATTTTTTR; Tat-GRA8-(213-222)) [Tat-GRA8 (aa 213-222)]
- blocking of mitochondrial targeting of GRA8 [1]: can effectively block mitochondrial targeting

Molecule: GRKKRRQRRR-G-YRFTVQTTQN (GRKKRRQRRRGYRFTVQTTQN; Tat-GRA8-(260-269)) [Tat-GRA8 (aa 260-269)]
- prevention of GRA8-ATP5A1/SIRT3 interaction [2]: able to effectively prevent

B1: rGRA8: recombinant His-tagged Toxoplasma gondii dense granule antigen 8, 269 amino acids; conventional GRA8-derived peptide (protein)
chain: MALPLRVSATVFVVFAVFGVARAMNGPLSYHPSSYGASYPNPSNPLHGMPKPENPVRPPPPGFHPSVIPNPPYPLGTPAGMPQPEVPPLQHPPPTGSPPAAAPQPPYPVGTPGMPQPEIPPVHRPPPPGFRPEVAPVPPYPVGTPTGMPQPEIPAVHHPFPYVTTTTTAAPRVLVYKIPYGGAAPPRAPPVPPRMGPSDISTHVRGAIRRQPATATTTTTTRNVLLRTAILAAAAATLIALFRQRPLFTEGVRMFPDFQYRFTVQTTQN
modifications: left off: small tags and cut ends
notes: recombinant His-tagged Toxoplasma gondii dense granule antigen 8, 269 amino acids; conventional GRA8-derived peptide
- cell death in HCT116 ([3]; 20 μg/ml, over time, MTT): induced cell death
- IC50 (HCT116 cell death) ([3]; HCT116 cells, MTT (FIG. 4A)): 20 µg/mL
- cell death in HT-29 [4]: induced cell death
- ATP5A1 deacetylation [5]: increased ATP5A1 deacetylation
- binding of rGRA8 to ATP5A1, SIRT3 and ATP5C1 [5]: significantly increased
- IC50 (antitumor activity in xenograft) [6]: 10 mg/kg
